In patent publication US20040167074A1, “Therapeutic applications of mFLINT polypeptides” (priority 1998, published 2004):

Key:
Jurkat cells = assay: anti-CD3 induced Jurkat apoptosis (Annexin V/PI, FACS); type: cell-based; parameters: Cell apoptosis (Annexin V, FACS): unit not given here; details: for Cell apoptosis (positive staining with Annexin V): Example 12; for Cell apoptosis (Annexin V, FACS): Example 14
Protocol: Non-tissue treated 24 well plates (Decton Dickinson, Mansfield, Mass.) were coated with 0.5 ml of 1 ug/ml anti-CD3 (Farmingen) in PBS for 90 min at 37° C. The plate was washed once with PBS.
Cells were incubated overnight at 37° C. incubator and cells were then stained by Annexin V and PI staining. Apotosis was analyzed by flow cytometer (FACS). Cell apoptosis was indicated by positive staining with Annexin V.

LIGHT = LIGHT cell surface binding assay by flow cytometry; details: LIGHT expressing cells preincubated with 10 fold excess of non tagged mFLINT
Protocol: To confirm the dot blot binding between LIGHT and mFLINT, 293 cells were transiently transfected with LIGHT expression construct overnight. On the next day, cells were detached and incubated with mFLINT-Flag on ice. […] As a control we used vector transfected cells. To make sure that the binding was specific, a competition assay with 10 fold access of untagged mFLINT was performed.
More particularly, 6 well dishes of cells were transfected as above. Both vector and m-LIGHT expressing cells were provided. Cells were detached from the plates by vigorous pipetting with a P100 Pipettor. Then, in PBS/BSA, 0.1%, cells were exposed to one of the following combinations, set forth in a-d.
a. GST/flag, mFLINT/flag, or HVEM at 20 nM;
b. FLINT/flag at 20 nM+GST/flag or mFLINT or HVEM at 200 nM;
c. FLINT/flag at 20 nM+HVEM+anti-human FAS ligand at 200 n-M;
d. anti-human FAS ligand-biotin at 1 μg/ml
Cells were incubated on ice for 30 minutes and washed with PBS/BSA, 0.1%. Cells then were exposed either to anti-human IgG-biotin, 1 μg/ml (for detection of HVEM), or to M2-biotin, 2 μg/ml (for detection of flag conjugates). Cells were incubated on ice for 30 minutes and washed with PBS/BSA, 0.1%. Thereafter, cells were exposed to streptavidin Alexa 488 (SIGMA) at a 1:1000 dilution. Again, cells were incubated on ice for 30 minutes and washed with PBS/BSA, 0.1 1%. Cells were analyzed using a FACSORT flow cytometer (Decton Dickinson) to determine binding.

[1] = system: Mouse T cell hybridoma cells (LTT cells); assay: Murine FasL-mediated apoptosis of LTT cells (Annexin V assay); type: cell-based; details: test agent 1 μg/ml
Protocol: LTT,2,14,11 cells (LTT cells), see Glasebrook, Eur.J.Immunol. 17: 1561-65 (1987), were used in this Annexin V assay. On the first day, a 96 well plate was coated with anti-CD3 (2C11) at a serial dilutions. On the second day, 100,000 LTT cells were added, in 50 μl of medium per well, along with 50 μl of medium to the control wells and 50 μl of medium containing:
Group 1. solubleFas (sFas)(FasFc, mouse), with a final concentration of 1 μg/ml
Group 2. mFLINT (human), with a final concentration of 1 ug/ml
Group 3. anti-FasL (mouse), with a final concentration of 1 ug/ml.
These then were incubated overnight, at 37° C., in 5% CO2;
On the following day (Day 3), the cells were collected from each well, washed and labeled with Annexin V and PI, following Flow cytometry analysis.

[2] = system: bone marrow progenitor cells; assay: CFU assay of bone marrow cells expanded in vitro with SCF and IL-6; type: cell-based, mouse; details: FIG. 9, mFLINT 1 ug/ml, 3 days with SCF and IL-6
Protocol: A—Bone marrow cells from irradiated mice—This experiment was designed to determine whether mFLINT could improve the recovery of murine hematopoietic progenitor cells from irradiation, by forcing in vitro expansion with hematopoietic cytokines. Mice were injected with 3 mg of 5-flouro-uracil, i.p., and four days later, femurs were removed and flushed to isolate bone marrow (BM) cells. 1×10^6 BM cells were seeded in each well of a 24 well tray in triplicate in Iscoves modified dulbeccos media (IMDM)+10% FBS and were stimulated for 3 days with the cytokines stem cell factor (SCF) and IL-6, in the presence or absence of mFLINT (1 ug/ml). After a 3-day in vitro expansion period, 5×10^3 cells were plated out in triplicate for the CFU assay.

TNFα = biological target: T1, TNFα (Homo sapiens, UniProt P01375); assay: Dot blot binding of mFLINT to TNF ligands
T1 construct: purchased
T1 sequence (P01375 77-233 limits assumed, species assumed): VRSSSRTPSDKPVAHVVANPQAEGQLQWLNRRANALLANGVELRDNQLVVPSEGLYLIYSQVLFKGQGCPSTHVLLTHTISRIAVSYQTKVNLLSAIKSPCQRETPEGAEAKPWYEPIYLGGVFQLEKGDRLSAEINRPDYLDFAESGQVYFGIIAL

B1: mFLINT: mature FLINT without leader peptide (FIG. 3), soluble TNFR superfamily member, made according to Examples 8 and 9 (protein)
chain: VAETPTYPWRDAETGERLVCAQCPPGTFVQRPCRRDSPTTCGPCPPRHYTQFWNYLERCRYCNVLCGEREEEARACHATHNRACRCRTGFFAHAGFCLEHASCPPGAGVIAPGTPSQNTQCQPCPPGTFSASSSSSEQCQPHRNCTALGLALNVPGSSSHDTLCTSCTGFPLSTRVPGAEECERAVIDFVAFQDISIKRLQRLLQALEAPEGWGPTPRAGRAALQLKLRRRLTELLGAQDGALLVRLLQALRVARMPGLERSVRERFLPVH
modifications: glycosylated
Cell apoptosis (positive staining with Annexin V) (Jurkat cells; Jurkat + antiCD3 + 1 ug test agent): 27.77 | Cell apoptosis (positive staining with Annexin V) (Jurkat cells; Jurkat + antiCD3 + 2 ug test agent): 18.67 | Cell apoptosis (Annexin V, FACS) (Jurkat cells; anti CD3 + 15.625 ng): 28.80 | Cell apoptosis (Annexin V, FACS) (Jurkat cells; anti CD3 + 31.25 ng): 28.21 | Cell apoptosis (Annexin V, FACS) (Jurkat cells; anti CD3 + 62.5 ng): 28.99 | Cell apoptosis (Annexin V, FACS) (Jurkat cells; anti CD3 + 125 ng): 29.4 | Cell apoptosis (Annexin V, FACS) (Jurkat cells; anti CD3 + 250 ng): 28.93 | Cell apoptosis (Annexin V, FACS) (Jurkat cells; anti CD3 + 500 ng): 27.48 | Cell apoptosis (Annexin V, FACS) (Jurkat cells; anti CD3 + 1000 ng): 24.29 | Cell apoptosis (Annexin V, FACS) (Jurkat cells; anti CD3 + 2000 ng): 17.02 | Cell apoptosis (Annexin V, FACS) (Jurkat cells; anti CD3 + 3000 ng): 14.68 | competition of mFLINT-Flag binding (LIGHT): completely reversed to baseline peak | % Annexin V Positive ([1]; Anti CD3 0): 26.47% | % Annexin V Positive ([1]; Anti CD3 0.11): 33.24% | % Annexin V Positive ([1]; Anti CD3 0.33): 35.89% | % Annexin V Positive ([1]; Anti CD3 1): 34.41% | CFU-GEMM colonies ([2]; control 750, p<0.007): 3,000 colonies/3×10^6 stimulated BM cells | CFU-GM colonies ([2]; control 8,000, p<0.039): 15,000 colonies/3×10^6 stimulated BM cells | CFU-E colonies ([2]; control 15,000, p<0.003): 33,000 colonies/3×10^6 stimulated BM cells | binding in dot blot (TNFα): No appreciable binding
